Reference: article PMC10397247

What was measured:
APC6108-AA = target: T1, APC6108-AA; test: two-hybrid library CCmax; conditions: mean of both orientations;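 also: natural log of median RNA to DNA barcode read ratio; higher means stronger binding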
T1 chain: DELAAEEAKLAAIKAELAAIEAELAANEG

APC1434-AA = target: T2, APC1434-AA; test: two-hybrid library CCmax; conditions: mean of both orientations;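 also: natural log of median RNA to DNA barcode read ratio; higher means stronger binding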
T2 chain: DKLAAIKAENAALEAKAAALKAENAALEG

APC1015-AA = target: T3, APC1015-AA; test: two-hybrid library CCmax;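 also: natural log of median RNA to DNA barcode read ratio; higher means stronger binding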
T3 chain: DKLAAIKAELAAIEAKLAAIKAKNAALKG

APC3645-AA = target: T4, APC3645-AA; test: two-hybrid library CCmax; conditions: mean of both orientations;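 also: natural log of median RNA to DNA barcode read ratio; higher means stronger binding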
T4 chain: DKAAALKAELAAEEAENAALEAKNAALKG

APC8191-AA = target: T5, APC8191-AA; test: two-hybrid library CCmax; conditions: mean of both orientations;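 also: natural log of median RNA to DNA barcode read ratio; higher means stronger binding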
T5 chain: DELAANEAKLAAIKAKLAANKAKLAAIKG

APC5383-AA = target: T6, APC5383-AA; test: two-hybrid library CCmax; conditions: mean of both orientations;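 also: natural log of median RNA to DNA barcode read ratio; higher means stronger binding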
T6 chain: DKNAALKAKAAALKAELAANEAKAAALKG

APC9096-AA = target: T7, APC9096-AA; test: two-hybrid library CCmax; conditions: mean of both orientations
T7 chain: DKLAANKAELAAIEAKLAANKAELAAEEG

APC7099-AA = target: T8, APC7099-AA; test: two-hybrid library CCmax; conditions: mean of both orientations
T8 chain: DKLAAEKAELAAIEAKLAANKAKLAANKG

APC8910-AA = target: T9, APC8910-AA; test: two-hybrid library CCmax; conditions: mean of both orientations
T9 chain: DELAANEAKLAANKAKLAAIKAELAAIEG

APC9319-AA = target: T10, APC9319-AA; test: two-hybrid library CCmax; conditions: mean of both orientations
T10 chain: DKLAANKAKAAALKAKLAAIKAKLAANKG

APC2405-AA = target: T11, APC2405-AA; test: two-hybrid library CCmax; conditions: mean of both orientations
T11 chain: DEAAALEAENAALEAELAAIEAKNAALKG

APC4011-AA = target: T12, APC4011-AA; test: two-hybrid library CCmax; conditions: mean of both orientations
T12 chain: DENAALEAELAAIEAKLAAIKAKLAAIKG

APC4436-AA = target: T13, APC4436-AA; test: two-hybrid library CCmax; conditions: mean of both orientations
T13 chain: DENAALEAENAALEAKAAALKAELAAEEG

APC2237-AA = target: T14, APC2237-AA; test: two-hybrid library CCmax; conditions: mean of both orientations
T14 chain: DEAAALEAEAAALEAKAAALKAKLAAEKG

APC4264-AA = target: T15, APC4264-AA; test: two-hybrid library CCmax; conditions: mean of both orientations
T15 chain: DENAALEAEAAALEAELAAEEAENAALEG

APC232-AA = target: T16, APC232-AA; test: two-hybrid library CCmax; conditions: mean of both orientations
T16 chain: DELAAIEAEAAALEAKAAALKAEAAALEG

P9A-bH = target: T17, P9A-bH; test: two-hybrid library CCNG1
T17 chain: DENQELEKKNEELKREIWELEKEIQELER

P8A-bH = target: T18, P8A-bH; test: two-hybrid library CCNG1
T18 chain: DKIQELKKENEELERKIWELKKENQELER

4H3381-AA = target: T19, 4H3381-AA; test: two-hybrid library CCmax; conditions: mean of both orientations
T19 chain: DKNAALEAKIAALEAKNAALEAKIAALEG

4H406-AA = target: T20, 4H406-AA; test: two-hybrid library CCmax; conditions: mean of both orientations
T20 chain: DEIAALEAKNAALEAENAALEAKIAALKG

4H3493-AA = target: T21, 4H3493-AA; test: two-hybrid library CCmax; conditions: mean of both orientations
T21 chain: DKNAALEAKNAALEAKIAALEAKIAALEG

4H347-AA = target: T22, 4H347-AA; test: two-hybrid library CCmax; conditions: mean of both orientations
T22 chain: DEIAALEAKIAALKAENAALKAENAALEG

4H688-AA = target: T23, 4H688-AA; test: two-hybrid library CCmax
T23 chain: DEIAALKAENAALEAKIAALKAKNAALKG

4H3340-AA = target: T24, 4H3340-AA; test: two-hybrid library CCmax
T24 chain: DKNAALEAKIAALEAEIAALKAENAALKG

4H376-AA = target: T25, 4H376-AA; test: two-hybrid library CCmax; conditions: mean of both orientations
T25 chain: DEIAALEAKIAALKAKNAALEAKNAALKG

4H963-AA = target: T26, 4H963-AA; test: two-hybrid library CCmax; conditions: mean of both orientations
T26 chain: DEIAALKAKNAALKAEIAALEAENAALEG

P8A-bA = target: T27, P8A-bA; test: two-hybrid library CCNG1
T27 chain: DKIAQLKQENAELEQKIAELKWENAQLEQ

P9A-bA = target: T28, P9A-bA; test: two-hybrid library CCNG1
T28 chain: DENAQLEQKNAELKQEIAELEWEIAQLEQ

B1: APC1015-AA (peptide)
chain: DKLAAIKAELAAIEAKLAAIKAKNAALKG
interaction score (APC6108-AA): 0.792
interaction score (APC1434-AA): -1.58
interaction score (APC1015-AA): -0.544
interaction score (APC3645-AA): -1.79
interaction score (APC8191-AA): -1.8
interaction score (APC5383-AA): -1.69
interaction score (APC9096-AA): -1.67
interaction score (APC7099-AA): -2.02
interaction score (APC8910-AA): -1.34
interaction score (APC9319-AA): -1.82
interaction score (APC2405-AA): -1.26
interaction score (APC4011-AA): 1.66
interaction score (APC4436-AA): -1.14
interaction score (APC2237-AA): -0.0287
interaction score (APC4264-AA): -1.82
interaction score (APC232-AA): 0.0398

B2: P8A-bH (peptide)
chain: DKIQELKKENEELERKIWELKKENQELER
interaction score (P9A-bH): -0.34
interaction score (P8A-bH): 0.54

B3: 4H3340-AA (peptide)
chain: DKNAALEAKIAALEAEIAALKAENAALKG
interaction score (4H3381-AA): -1.57
interaction score (4H406-AA): -1.43
interaction score (4H3493-AA): -1.48
interaction score (4H347-AA): -0.858
interaction score (4H688-AA): -1.69
interaction score (4H3340-AA): 1.7
interaction score (4H376-AA): -1.48
interaction score (4H963-AA): -2.28

B4: P8A-bA (peptide)
chain: DKIAQLKQENAELEQKIAELKWENAQLEQ
interaction score (P8A-bA): -0.497
interaction score (P9A-bA): -0.256
